Test: yeast display, Sf9 membrane polyspecificity reagent, FACS + sequencing; frameworks hold sequencing errors
Outline: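 Galactose-induced (36–48 hours) yeast carrying a synthetic nanobody display library were exposed to 10% biotinylated, detergent-solubilized Sf9 membrane reagent at 4 °C for 1 hour. FACS followed streptavidin microbead enrichment, using low and high (top ~1%) gates for expression (anti-HA) and reagent binding (streptavidin). Colony PCR, MiSeq 2 × 250 sequencing and CDR-length filtering followed. Labels for polyreactivity reflect the gate of origin.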

Sequence | polyreactivity (PSR sort gate)
QVQLVESGGGLVQAGGSLRLSCAASGSTFYKYAMGWYRQAPGKERELVATINISGGSTSYADSVKGRFTISRDYAKNTVYLQMNSLKPEDTAVYYCAASLTRHGYYRRFDYWGQGTQVTVSS | high polyreactivity
QVQLVESGGGLVQAGGSLRLSCAASGSTFYKYVMGWYRQAPGKERELVAAISWSGGSTYYADSVKGRFTISRDNAKNTVYLQMNSLKPEDPAVYYCAAETYAYLFHTYDYWGQGTQVTVSS | low polyreactivity
QVQLVESGGGLVQAGGSLRLSCAASGSTFYLNVMGWYRQAPGKERELVAAISSSGGSTYYADSVKGRFTISRDNAKNTVYLQMNSLKPEDTAVYYCNKVSAFPHYSGYDYWGQGTQVTVSS | low polyreactivity
QVQLVESGGGLVQAGGSLRLSCAASGSTFYLYAMGWYRQAPGKEREFVAAISWSGGRTYYADSVKGRFTISRDNAKNTVYLQMNSLKPEYTAVYYCAARRRYTWQYTRYDMGYWGQGTQVTVSS | low polyreactivity
QVQLVESGGGLVQAGGSLRLSCAASGSTFYLYAMGWYRQAPGKERELVAAISRGGTTYYADSVKGRFTISRDNAKNTVYLKMNSLKPEDTAVYYCAARRPWWYGGGMDYWGQGTQVTVSS | high polyreactivity
QVQLVESGGGLVQAGGSLRLSCAASGSTFYLYAMGWYRQAPGKERELVAAISYSDGSTYYADSVKGRFTISRDNAKNTVYLQMNSMKPEDTAVYYCAAQHYVRSSIPGFIYYYWGQGTQVNVSS | high polyreactivity
QVQLVESGGGLVQAGGSLRLSCAASGSTFYLYAMGWYRQAPGKERELVAGITGSGGRTYYADSVKGRFTISRDNAKNTVYLQLNSLKPEDTAVYYCNKRRASWSPAGGTYNYWGQGSQVTVSS | low polyreactivity
QVQLVESGGGLVQAGGSLRLSCAASGSTFYLYARGWFSQAPGKVRELGAAIRTSGGSTYYADSGKGRFTISRDTAKNTVYLQMNSLKPEDTAVYSCTAAWPYNSVEYWGQGTQVTVSS | low polyreactivity
QVQLVESGGGLVQAGGSLRLSCAASGSTFYNNAMGWYRQAPGKEREFVAAIRYRGGSTYYADSVKGRFTISRDNAKNTVYLQMNSLKPEDTAVYYCAADQGVYRTYWVDYWGQGTQVTVSS | high polyreactivity
QVQLVESGGGLVQAGGSLRLSCAASGSTFYNNAMGWYRQAPGKERELVATISASSTSTYYADSVKGRFTISRDNAKNTVYLQMNSLKPEDTAVYYCAKDYVHGSTYGYYWYGYDYWGQGTQVTVSS | low polyreactivity
QVQLVESGGGLVQAGGSLRLSCAASGSTFYNYAMGWSRQAPGKERELVASITWNGGSTYYADSVKGRFTISRDNAKNTVYLQMNSLKPEDTAVYYCAADWTWTYPYDYWGQGTQVTVSS | low polyreactivity
QVQLVESGGGLVQAGGSLRLSCAASGSTFYNYAMGWYRQAPGKERELVASITWNGGSTYYADSVKGRFTISRDNAKNTVYLQMNSLKPEDTAVYYCAADWTWTYPYDYWGQGTQVTVSS | low polyreactivity
QVQLVESGGGLVQAGGSLRLSCAASGSTFYPNAMGWYRQAPGKERELVAAITDSVGTTNYADSVKGRFTISRDNAKNTVYLQINSLKPEDTAVYYCTAPIGGSYNTRRAAEYDYWGQGTQVTVSS | low polyreactivity
QVQLVESGGGLVQAGGSLRLSCAASGSTFYPTYAMGWYRQAPGKERELVATITGSGGSTYYADSVKGRFTSSRDNAKNTVYLQMNSLKPEDTAVYYCAADRWYSRYTRYGYWGQGTQVTVSS | low polyreactivity
QVQLVESGGGLVQAGGSLRLSCAASGSTFYPYAMGRYRQAPGKERELVAAISSGGSTSYADSVKGRFTISRDNAKNTVYLQLNSLKPEDTAVYYCNASSPGAVPVYDYDYWGQGTQVTVSS | low polyreactivity
QVQLVESGGGLVQAGGSLRLSCAASGSTFYPYAMGWYRPAPGKERELVAAINWSGGTTYYADSVKGRFTISRDNAKNTVYLQMNSLKPVDTAVYYCAADGYPPGYGYWGQGTQVTVSS | low polyreactivity
QVQLVESGGGLVQAGGSLRLSCAASGSTFYPYAMGWYRQAPGKEREFVAAIRSSGTSTYYADSVKGRFTISRDNAKNTVYLQMNSLKPEDTEVYYGAARVRGDSVSRTKPASIGGGSWGQGTQVTVSS | high polyreactivity
QVQLVESGGGLVQAGGSLRLSCAASGSTFYQYAMGWYRQAPGKERELVAAITGSGTRTYYADSVKGRFTISRDNAKNTVYLQMNSLKPEDTAVYYCAAQKYYQGYNYWGQGTQVTVSS | high polyreactivity
QVQLVESGGGLVQAGGSLRLSCAASGSTFYQYVMGWYRQAPGKESELVAAISSSGGSTYYADSVKGRFTISRDNAKNTVYLQMTSLKPEDTAVYYCAVDNYRGYGHDYYWGQGTQVTVSS | low polyreactivity
QVQLVESGGGLVQAGGSLRLSCAASGSTFYRNAMAWYRQAPGKERELVAAISSTGGSTYYADSVKGRFTISRDNAKNTVYLQMNSLKPEDTAVYYCAVDPGLTKGFGYWGQGTQVTVSS | low polyreactivity
QVQLVESGGGLVQAGGSLRLSCAASGSTFYRNAMGWYRQAPGKEREFVADITLGGGSTYYADSVKGRFTISRDNAKNTVYLQMNSRKPEDTAVYYCAVDYWQLNYDYWGQGTQVTVSS | low polyreactivity

Sequence | polyreactivity (PSR sort gate)
QVQLVESGGGLVQAGGSLRLSCAASGSTFYRYAMGWYRPAPGKERELVAAISSSGGSTYYADSVKGRFTISRDNAKNTVYLQMNSLKPEDTAVYYGNADVHSQYDYWGQGTQVTVSS | low polyreactivity
QVQLVESGGGLVQAGGSLRLSCAASGSTFYRYAMGWYRQAPGKERELVAAISGSGGRTYYADSVKGRFTISRDNAKNTVYLQMNSLKPEDTAVYYCATRFGQRSDYWGQGTQVTVSS | high polyreactivity
QVQLVESGGGLVQAGGSLRLSCAASGSTFYRYAMGWYRQAPGKERELVAAISQSGGRTYYADSVKGRFTISRDYAKNTVYLQMNSLKPEDTAVYYCAASWYYSLQRYGYWGQGTQVTVST | high polyreactivity
QVQLVESGGGLVQAGGSLRLSCAASGSTFYRYAMGWYRQAPGKERELVAAISSSGGRTYYADSVKGRFTISRDNAKKTVYLQMNSLKPEDTAVYYCAAKNAAYARYYYWGQGTQVTVSS | high polyreactivity
QVQLVESGGGLVQAGGSLRLSCAASGSTFYRYAMGWYRQAPGKERELVAAISSSGGSTYYADSVKGRFTISRDNAKNTVYLQMNSLKPEDTAVYYCNAALTPYDYDYWGQGTQVTVSS | low polyreactivity
QVQLVESGGGLVQAGGSLRLSCAASGSTFYRYAMGWYRQAPGKERELVAAITARGGSTYYADSVKGRFTISRDNAKNTVYLQMNSLKPEDTAVYYCAADWLSTKNDYWGQGTQVTESS | low polyreactivity
QVQLVESGGGLVQAGGSLRLSCAASGSTFYRYAMGWYRQAPGKERELVAAITRGGGRTYYADSVKGRFTISRDNAKNTVYLQMNSLKPEDTAVYYCNAASPYYDSWGQGTQVTVSS | high polyreactivity
QVQLVESGGGLVQAGGSLRLSCAASGSTFYRYAMGWYRQAPGKERELVADITRSGDSTYYADSVKGRFTISRDNAKNTVYLQMNSLKPEDTAVYYCAREYPTIRYRLGYWGQGTQVTVSS | low polyreactivity
QVQLVESGGGLVQAGGSLRLSCAASGSTFYRYAMGWYRQAPGKERELVASLTGSGGRTYYADSVKGRFTISRDNAKNTVYLQMNSLKPEDTAVYYCAARLYVRSVIGNAIVKYDYWGQGTQVTVSS | high polyreactivity
QVQLVESGGGLVQAGGSLRLSCAASGSTFYRYTMRWYRQAPGKERELVASIRWTGGRTNYADSVKGRFTISRDNAKNTVYLQMNSLKPEDTAVYYCAAYLKYPYAASYGSWGQGTQVTVSS | high polyreactivity
QVQLVESGGGLVQAGGSLRLSCAASGSTFYSNAMGWYRQAPGKERELVAAIDWGGGSTYYADSVKGRFTISRDNAKNTVYLQMNSLKPEDTAVYYCATDANGYYNYDYWGQGTQVTVSS | low polyreactivity
QVQLVESGGGLVQAGGSLRLSCAASGSTFYSNAMGWYRQAPGKERELVAGIDTSDGSTNYADSVKGRFTISRDHAMNTVYLQMNSLKPEDTAVYYCAADYTQPGFVSYDYWGQGSQVTVSS | low polyreactivity
QVQLVESGGGLVQAGGSLRLSCAASGSTFYSNAMGWYRQAPGKERELVASIRFSGVITTYADSVKGRFTISRDNAKNTVYLQMNSLKPEDTAVYYWAAGYLSTTAYDYWGQGTQVTVSS | low polyreactivity
QVQLVESGGGLVQAGGSLRLSCAASGSTFYSNVMGWYTQATGKEREFVAGISGSGGSTYYADSVKGRFTISRDNAKNTVYLQMNSLKPDDTAVYYCAKYRYSRYFRYDYWGQGTQVTVSS | high polyreactivity
QVQLVESGGGLVQAGGSLRLSCAASGSTFYSYAMGWYRQAPGKERELVAAIDSGGSTYYADTVKGRFTISRDNAKTTVYLQKNSLKPEDTAVYYCAVRVTSYYRTKDYWGQGTQVTVSS | low polyreactivity
QVQLVESGGGLVQAGGSLRLSCAASGSTFYSYAMGWYRQAPGKERELVAAIDWSGDNTNYADSVKGRFTISRDNAKNTVYLQMNSLKPEDTAVYYCAAVYSYYRLYAYPAYYYWGQGTQVTVSS | low polyreactivity
QVQLVESGGGLVQAGGSLRLSCAASGSTFYSYAMGWYRQAPGKERELVAAITKGGGSTYYADSVKGRFTISRDNAKNTVYLQMNSLIPEDTAVYYCAAPGLYWYYTRSVYDYWGQGTQVTVSS | high polyreactivity
QVQLVESGGGLVQAGGSLRLSCAASGSTFYSYAMGWYRQAPGKERELVAAITSGGSTNYADSVKGRFTISRDNAKNTVYLQMNSLKPEDTAVYYCAAVVSTVDGMEYWGQGTQVTVSS | low polyreactivity
QVQLVESGGGLVQAGGSLRLSCAASGSTFYTNAMGWDRPAPGKEREVVAAISWSGSSTYADSVKGRFTISRDNAKNTVYLQMNSLKPEDTAVYYCAADWFKLRTDYYWGQGTQVTVSS | low polyreactivity
QVQLVESGGGLVQAGGSLRLSCAASGSTFYTNAMGWYRQAPGKERELVAAISASVGSTYYADSVKGRFTISRDNAKNTVYLQMNSLKPEDTAVYYCAADVWASRRYDYWGQGTQVTVSS | low polyreactivity

Reference: the nanobody polyreactivity screen of Harvey et al. (2022)
